Reference: US6045809A, “Pharmaceutical compositions containing a superoxide dismutase” (Institut de Recherches Franctales, priority 1995, dated 2000)

Columns and labels:
granulocytes = experiment: Granulocyte activation (production of superoxide anions after stimulation with zymosan or PMA); assay type: cell-based
Description: The samples are those collected 3 hours after pleurisy.
Reagent control: PBS^+ (0.65 ml)+cytochrome C 5 mg/ml (0.15 ml).
Cell control: PBS^+ (0.65 ml)+cytochrome C 5 mg/ml (0.15 ml)+G 10 M/ml (0.2 ml).
Test: PBS^+ (0.45 ml)+cytochrome C 5 mg/ml (0.15 ml)+ZO or PMA (0.2 ml), with: NaCl control (column 1), SOD (column 2), Ceramide control (column 3), SOD+ceramides (column 4), Liposome control (column 5), Liposomal SOD (column 6).
Incubate for 15 minutes in a water bath at 37° C., with shaking,
stop the reaction for 10 minutes in an ice bath,
centrifuge for 5 minutes at 2000 rpm.

[1] = Erythrocyte SOD kinetics in anaesthetized rats after subcutaneous administration; parameters: species or system rat (male OFA, Sprague-Dawley); settings: rat, in vivo, sc
Description: (§1) The kinetics of the plasmatic SOD are analyzed in anaesthetized rats after the oral or subcutaneous administration of free SOD, liposomal SOD or SOD in the form of a composition according to the invention.
(§2) The rats used are male OFA, Sprague-Dawley rats which are devoid of pathogenic germs, weigh 300 to 400 g and are not of the same blood type (IFFA CREDO breed).
Subcutaneous administration:
bovine erythrocyte SOD (Allerbiodose®) 0.5-1-2 mg/ml, in NaCl 0.9%,
bovine erythrocyte SOD 0.5-1-2 mg/ml+plant ceramides 1% (Inocosm), in NaCl 0.9%, according to the invention,
liposomal bovine erythrocyte SOD 0.5-1-2 mg/ml,
(§3) bovine erythrocyte SOD+gliadin, according to the invention.
The solutions or suspensions to be studied are administered at T0 by the injection of a volume of 0.3 ml (in 0.9% NaCl solution) behind the animal's head (n=4).
(§4) Each series of experiments is carried out on 4 animals per dose, the control groups always being treated in parallel for each experiment.
(§5) Once the gavage (or the subcutaneous injection) has been performed on the animals, the latter are anaesthetized by the slow intraperitoneal injection of thiopental (0.1 ml/100 g).
The samples are taken every hour for 6 hours (400 μl) via the one-way tap. The blood is collected in heparinated Eppendorf tubes (20 μl of heparin 1000 IU/ml). It is then centrifuged for 5 min at 4000 rpm. […]

rat paw oedema = experiment: λ carrageenan-induced paw oedema after oral administration (gavage); assay type: in vivo; settings: dose of 0.5 mg/kg
Description: To study the comparative kinetics of the anti-inflammatory action of a free form of SOD and a composition according to the invention, at different concentrations.
2 gavages are performed per day (morning and evening).
Injection of 0.1 ml of λ carrageenan 1% in the paw pad.
The measurements are made every hour for 6 hours.

[2] = Erythrocyte SOD kinetics in anaesthetized rats after oral administration (gavage); parameters: species or system rat (male OFA, Sprague-Dawley); settings: rat, in vivo
Description: as §1, §2
bovine erythrocyte SOD (Allerbiodose®) 1-2-4 mg/ml, in NaCl 0.9%,
bovine erythrocyte SOD 1-2-4 mg/ml+plant ceramides 1% (Inocosm), in NaCl 0.9%, according to the invention,
liposomal bovine erythrocyte SOD 1-2-4 mg/ml,
as §3
The gavage is performed on the animals (n=4) at T0 with a volume of 1 ml of solution or suspension to be studied, in 0.9% NaCl solution. This gavage is performed using a cannula mounted on a 1 ml syringe and introduced into the buccal cavity of the rat.
as §4, §5
The samples are taken every hour for 6 hours (400 μl) via the one-way tap. The blood is collected in heparinated Eppendorf tubes (20 μl of heparin 1000 IU/ml). It is then centrifuged for 5 min at 4000 rpm. The plasma is then discarded and replaced with NaCl 0.9%. The tubes are centrifuged again for 5 min at 4000 rpm. The red blood cells are thus washed three times in succession.
The assays of the enzymatic activity of the erythrocyte SOD (of each form) are performed on each control or treated sample.
The erythrocytes are appropriately diluted in distilled water (+0.5 ml of 1% Triton solution) so that the inhibition obtained in the study tube is about 50% of that in the control tube.
The results obtained in IU SOD/ml are reported in IU SOD/mg haemoglobin. The haemoglobin is assayed by spectrophotometry at 405 nm.

## SOD: bovine erythrocyte SOD (Allerbiodose®), in NaCl 0.9%
granulocytes; by oral administration
  Significance (P) of the anti-inflammatory role: < 0.05
granulocytes; oral administration, FIGS. 18 to 20
  Effect of oral administration on granulocyte activation (in words): inhibitory effect
[1]
  Cmax (comparison in words): slightly lower
Rat paw oedema
  Number of gavages from which the anti-inflammatory effect is observed: ≥ 4 gavages
[2]
  Cmax (comparison in words): lower
  Concentrations/passage of SOD after oral administration (in words): reaches high concentrations when administered orally
  Tmax: around 5 hours
